Reference: patent US20150299296A1 (Chugai, published 2015)

Tests used:
[1] = target: T1, human FcγRIa extracellular domain with C-terminal His tag (human, UniProt P12314 16-292); test: SPR (Biacore): antibody captured on the chip, FcγR as analyte; amount bound divided by amount of antibody captured, relative to the antibody without mutation in B3 = 100 (Reference Examples 2 and 3)
T1 construct: Whole entry named; also called FcgRIa; FcgIa

[2] = target: T2, human FcγRIIb extracellular domain with C-terminal His tag (human, UniProt P31994 43-217); test: SPR (Biacore), KD by the method of Reference Example 2 (Example 9-3)
T2 construct: extracellular domain; For crystals it was expressed with kifunensine and trimmed with Endo F1; also called FcgRIIb; FcγRIIb extracellular region
T2 sequence (looked up): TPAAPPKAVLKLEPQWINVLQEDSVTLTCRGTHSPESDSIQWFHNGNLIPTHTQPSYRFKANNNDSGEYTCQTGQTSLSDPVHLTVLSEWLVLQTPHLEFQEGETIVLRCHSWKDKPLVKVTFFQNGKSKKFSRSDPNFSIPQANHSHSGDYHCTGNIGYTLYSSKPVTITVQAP
Protocol: These variants were used for antibody expression and purification according to the method of Reference Example 1, and binding to each FcgR (FcgRIa. FcgRIIa type H, FcgRIIa type R, FcgRIIb, and FcgRIIIa type V) was assessed using the method of Reference Example 2.

[3] = target: T2, human FcγRIIb extracellular domain with …; test: SPR KD ratio; reference is the same variant's KD for FcγRIIaR
[4] = target: T1, human FcγRIa extracellular domain with …; test: SPR
[5] = target: T2, human FcγRIIb extracellular domain with …; test: SPR

T1 sequence (P12314 16-292): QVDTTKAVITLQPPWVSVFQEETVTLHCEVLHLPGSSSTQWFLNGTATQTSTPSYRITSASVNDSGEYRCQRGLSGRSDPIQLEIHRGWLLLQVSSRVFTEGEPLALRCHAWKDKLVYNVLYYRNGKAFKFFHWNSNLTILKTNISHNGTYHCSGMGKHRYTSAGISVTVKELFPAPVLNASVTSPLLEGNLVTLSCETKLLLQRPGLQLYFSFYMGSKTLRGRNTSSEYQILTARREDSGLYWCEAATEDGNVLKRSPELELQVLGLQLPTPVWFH

Binder | KD (IIaR)/KD (IIb) [3] | binding result [4] | other results
mutation B (antibody, human IgG1, kappa, Legend: mutation B = Leu at 328 (EU numbering) substituted with Glu) heavy chain: not shown light chain: DIVMTQSPLSLPVTPGEPASISCQASESLVHSNRNTYLHWYLQKPGQSPQLLIYKVSNRFSGVPDRFSGSGSGTDFTLKISRVEAEDVGVYYCSQNTHVPPTFGQGTKVEIERTVAAPSVFIFPPSDEQLKSGTASVVCLLNNFYPREAKVQWKVDNALQSGNSQESVTEQDSKDSTYSLSSTLTLSKADYEKHKVYACEVTHQGLSSPVTKSFNRGEC | – | – | binding result [1]: binds
IL6R-BP264/IL6R-L (antibody, human IgG1, kappa) heavy: QVQLQESGPGLVKPSETLSLTCAVSGHSISHDHAWSWVRQPPGEGLEWIGFISYSGITNYNPSLQGRVTISRDNSKNTLYLQMNSLRAEDTAVYYCARSLARTTAMDYWGEGTLVTVSSASTKGPSVFPLAPSSKSTSGGTAALGCLVKDYFPEPVTVSWNSGALTSGVHTFPAVLQSSGLYSLSSVVTVPSSSLGTQTYICNVNHKPSNTKVDKKVEPKSCDKTHTCPPCPAPDLLGDDSVFLFPPKPKDTLMISRTPEVTCVVVDVSEEDGEVKFNWYVDGVEVHNAKTKPREEQDNSTYRVVSVLTVLHQDWLNGKEYKCKVSNKALPRPIEKTISKAKGQPREPQVYTLPPSRDELTKNQVSLTCLVKGFYPSDIAVEWESNGQPENNYKTTPPVLDSDGSFFLYSKLTVDKSRWQQGNVFSCSVMHEALHNHYTQESLSLSP light: not shown | – | – | binding result [2]: binds
IL6R-BP479/IL6R-L (antibody) chain 1: QVQLQESGPGLVKPSETLSLTCAVSGHSISHDHAWSWVRQPPGEGLEWIGFISYSGITNYNPSLQGRVTISRDNSKNTLYLQMNSLRAEDTAVYYCARSLARTTAMDYWGEGTLVTVSSASTKGPSVFPLAPSSKSTSGGTAALGCLVKDYFPEPVTVSWNSGALTSGVHTFPAVLQSSGLYSLSSVVTVPSSSLGTQTYICNVNHKPSNTKVDKKVEPKSCDKTHTCPPCPAPDLLGDDSVFLFPPKPKDTLMISRTPEVTCVVIDLAEEDGEVKFNWYVDGVEVHNAKTKPREEQYNSTYRVVSVLTVLHQDWLNGKEYKCKVSNKALPAPIEKTISKAKGQPREPQVYTLPPSRDELTKNQVSLTCLVKGFYPSDIAVEWESNGQPENNYKTTPPVLDSDGSFFLYSKLTVDKSRWQQGNVFSCSVMHEALHNHYTQESLSLSP chain 2: not shown | 16.1 | – | –
IL6R-BP436/IL6R-L (antibody, human IgG1, kappa) heavy: QVQLQESGPGLVKPSETLSLTCAVSGHSISHDHAWSWVRQPPGEGLEWIGFISYSGITNYNPSLQGRVTISRDNSKNTLYLQMNSLRAEDTAVYYCARSLARTTAMDYWGEGTLVTVSSASTKGPSVFPLAPSSKSTSGGTAALGCLVKDYFPEPVTVSWNSGALTSGVHTFPAVLQSSGLYSLSSVVTVPSSSLGTQTYICNVNHKPSNTKVDKKVEPKSCDKTHTCPPCPAPDLLGDDSVFLFPPKPKDTLMISRTPEVTCVVVDVAEEDGEVKFNWYVDGVEVHNAKTKPREEQDNSTYRVVSVLTVLHQDWLNGKEYKCKVSNKALPRPTEKTISKAKGQPREPQVYTLPPSRDELTKNQVSLTCLVKGFYPSDIAVEWESNGQPENNYKTTPPVLDSDGSFFLYSKLTVDKSRWQQGNVFSCSVMHEALHNHYTQESLSLSP light: not shown | – | binds | binding result [5]: binds
IL6R-BP567/IL6R-L (antibody, human IgG1, kappa) heavy: QVQLQESGPGLVKPSETLSLTCAVSGHSISHDHAWSWVRQPPGEGLEWIGFISYSGITNYNPSLQGRVTISRDNSKNTLYLQMNSLRAEDTAVYYCARSLARTTAMDYWGEGTLVTVSSASTKGPSVFPLAPSSKSTSGGTAALGCLVKDYFPEPVTVSWNSGALTSGVHTFPAVLQSSGLYSLSSVVTVPSSSLGTQTYICNVNHKPSNTKVDKKVEPKSCDKTHTCPPCPAPDLLGGDSVFLFPPKPKDTLMISRTPEVTCVVIDVAEEDGEVKFNWYVDGVEVHNAKTKPREEQDNSTYRVVSVLTVLHQDWLNGKEYKCKVSNKALPAPIEKTISKAKGQPREPQVYTLPPSRDELTKNQVSLTCLVKGFYPSDIAVEWESNGQPENNYKTTPPVLDSDGSFFLYSKLTVDKSRWQQGNVFSCSVMHEALHNHYTQESLSLSP light: not shown | 64.4 | binds | –
